The values that follow come from patent US20160108098A1 (GlaxoSmithKline, published 2016).

Where no end group is shown, it is not given here.

The target in one test is T1, human Neuropeptide Y receptor type 2 (human, UniProt P49146 1-381).
T1 sequence (looked up): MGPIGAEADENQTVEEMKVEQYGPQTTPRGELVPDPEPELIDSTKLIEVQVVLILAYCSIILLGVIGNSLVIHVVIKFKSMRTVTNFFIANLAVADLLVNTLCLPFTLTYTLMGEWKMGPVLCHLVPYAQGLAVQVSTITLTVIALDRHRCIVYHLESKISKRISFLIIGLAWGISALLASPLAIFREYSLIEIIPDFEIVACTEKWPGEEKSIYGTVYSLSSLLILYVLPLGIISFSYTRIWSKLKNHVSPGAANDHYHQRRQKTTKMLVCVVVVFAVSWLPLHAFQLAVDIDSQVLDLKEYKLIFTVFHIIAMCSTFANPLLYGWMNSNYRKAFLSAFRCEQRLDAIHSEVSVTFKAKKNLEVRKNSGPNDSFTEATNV
In words: cell-based or functional assay.
For PKPEHPGKDASPEEWNRYYASLRKYLNWVTRQRY-NH2 [Example 25], the “hNPY Y2 pEC50” value came out at 9.6 pEC50.
For the molecule PKPEAPGKDASPEELNRYYASLRKYLNWLTRQRY-NH2 [Example 2], the “hNPY Y2 pEC50” value came to 9.8 pEC50.
Same read-out and setting: to PKPEAPGKDASPEELNRYYASLRKYLNWVTRQRY-NH2 [Example 31] belongs 9.8 pEC50.

The target of another test is T1, human Neuropeptide Y receptor type 2. In words: cell-based or functional assay. This is another data set of the same source.
With IKPPYPGCDASPEEQNKYYASLRAYWNLVTRQRY-NH2 [Peptide 8], the “hNPY Y2 pEC50” value was 9.3 pEC50.
Still for that read-out and setting: to PKPEAPLSKQLEEEAVRYYASLRHYLNLVTRQRY-NH2 [Peptide 21] belongs 8.7 pEC50; to PKPEAPGCDASPEEWNRYYASLRKYLNWVTRQHY-NH2 [Peptide 14], 8.2 pEC50.
On to PKPEAPGEDASPKEWNRYYASLRKYLNWVTRQRY-NH2 [Peptide 3], for which the “hNPY Y2 pEC50” value was 9.2 pEC50.
Still for that read-out and setting: to PKPVAPGCDASPAELNRQYSDLRNYWNLVTRQRY-NH2 [Peptide 15] belongs 8.9 pEC50; to IKPEAPLSKQLEEEAVRYYASLRHYLNLVTRQRY-NH2 [Peptide 2], 8.6 pEC50; to PKPEAPGCDASPEEWNRYYASLRKYLNWVTRQNY-NH2 [Peptide 1], 7.9 pEC50.
